Experiment: Enzymatic activity of mouse versus human β-glucuronidase at pH 7.0
Assay type: biochemical
Description: Each of the cDNAs encoding human and mouse beta-glucuronidases (Genbank accession no. NM_000181, 03-SEP-2009 and Genbank accession no. J02836.1, 29-APR-1996) was fused to the juxtamembrane Ig-like extracellular domain, transmembrane domain and cytoplasmic tail of murine B7-1. See Chen et al., Cancer Gene Ther 14:187-200 (2007).

B1: Mouse β-glucuronidase: mouse beta-glucuronidase, Genbank accession no. J02836.1 (protein)
chain: LKGGMLFPKESPSRELKALDGLWHFRADLSNNRLQGFEQQWYRQPLRESGPVLDMPVPSSFNDITQEAALRDFIGWVWYEREAILPRRWTQDTDMRVVLRINSAHYYAVVWVNGIHVVEHEGGHLPFEADISKLVQSGPLTTCRITIAINNTLTPHTLPPGTIVYKTDTSMYPKGYFVQDTSFDFFNYAGLHRSVVLYTTPTTYIDDITVITNVEQDIGLVTYWISVQGSEHFQLEVQLLDEGGKVVAHGTGNQGQLQVPSANLWWPYLMHEHPAYMYSLEVKVTTTESVTDYYTLPIGIRTVAVTKSKFLINGKPFYFQGVNKHEDSDIRGKGFDWPLLVKDFNLLRWLGANSFRTSHYPYSEEVLQLCDRYGIVVIDECPGVGIVLPQSFGNESLRHHLEVMEELVRRDKNHPAVVMWSVANEPSSALKPAAYYFKTLITHTKALDLTRPVTFVSNAKYDADLGAPYVDVICVNSYFSWYHDYGHLEVIQPQLNSQFENWYKTHQKPIIQSEYGADAIPGIHEDPPRMFSEEYQKAVLENYHSVLDQKRKEYVVGELIWNFADFMTNQSPLRVIGNKKGIFTRQRQPKTSAFILRERYWRIANETGGHGSGPRTQCFGSRPFTFKADFSTPNITESGNPSADTKRITCFASGGFPKPRFSWLENGRELPGINTTISQDPESELYTISSQLDFNTTRNHTIKCLIKYGDAHVSEDFTWEKPPEDPPDSKNTLVLFGAGFGAVITVVVIVVIIKCFCKHRSCFRRNEASRETNNSLTFGPEEALAEQTVFL
modifications: left off: small tags and cut ends
Enzymatic activity compared with human β-glucuronidase: about three-fold greater

From patent US8491891B2, “Human beta-glucuronidase mutants with elevated enzymatic activity under physiological conditions and method for identifying such” (Academia Sinica, priority 2008, dated 2013)
